For this test, the target named is HA-PLK1 (human, UniProt P53350 1-603). As to the kind of experiment: cell-based or functional assay.
HA-PLK1, sequence (P53350 whole entry): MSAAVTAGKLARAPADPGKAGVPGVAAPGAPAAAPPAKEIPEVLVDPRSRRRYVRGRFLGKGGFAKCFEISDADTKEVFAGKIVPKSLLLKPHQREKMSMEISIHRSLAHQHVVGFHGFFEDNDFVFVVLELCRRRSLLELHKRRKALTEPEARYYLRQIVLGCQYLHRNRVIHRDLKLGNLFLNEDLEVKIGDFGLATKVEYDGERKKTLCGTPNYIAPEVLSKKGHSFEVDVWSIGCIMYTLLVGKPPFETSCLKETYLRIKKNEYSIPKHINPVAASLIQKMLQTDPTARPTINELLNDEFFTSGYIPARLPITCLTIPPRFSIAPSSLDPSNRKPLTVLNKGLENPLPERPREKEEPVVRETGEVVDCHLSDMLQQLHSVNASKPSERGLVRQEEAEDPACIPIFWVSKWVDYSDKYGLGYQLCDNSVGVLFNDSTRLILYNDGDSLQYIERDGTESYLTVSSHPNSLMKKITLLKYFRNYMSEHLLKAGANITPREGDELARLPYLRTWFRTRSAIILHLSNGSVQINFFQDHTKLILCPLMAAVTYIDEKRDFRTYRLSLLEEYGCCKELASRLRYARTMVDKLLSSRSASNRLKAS

B1: GST-RGCC (natural protein, UniProt Q9H4X1 1-137, looked up)
chain: MKPPAAQGSPAAAAAAAPALDSAAAEDLSDALCEFDAVLADFASPFHERHFHYEEHLERMKRRSSASVSDSSGFSDSESADSLYRNSFSFSDEKLNSPTDSTPALLSATVTPQKAKLGDTKELEAFIADLDKTLASM
Take B1: the “in vitro PLK1 kinase activity (universal kinase activity kit, purified PLK1 with AMPKα2 and ATP); EC50 of RGCC for activation of PLK1” value is 19.4 nM.

(Values after article PMC10722681, “RGCC-mediated PLK1 activity drives breast cancer lung metastasis by phosphorylating AMPKα2 to activate oxidative phosphorylation and fatty acid oxidation” (Journal of Experimental & Clinical Cancer Research : CR, 2023).)
